Experimental data published in the nanobody polyreactivity screen of Harvey et al. (2022).

Experiment: yeast display, Sf9 membrane polyspecificity reagent, FACS + sequencing; frameworks hold sequencing errors
In short: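 Polyreactivity labels are assigned by the sorting gate from which each nanobody was recovered. The gates were low and high (top ~1%), set on anti-HA fluorescence for expression and streptavidin fluorescence for reagent binding. Before sorting, galactose-induced (36–48 hours) yeast display cells were stained for 1 hour at 4 °C with 10% biotinylated, detergent-solubilized Sf9 membrane reagent.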
In the case of “QVQLVESGGGIVQAGGSLRLICAASGFIFEFNVMGWYRQSPGKERQLVAAISRSGGSTYYADSVKGRFTISRDNAKNTVYLQMISLKPEDSAVYYCAARSYRSGTHGYNYWGQGTQVTVSS”, the “polyreactivity (PSR sort gate)” value is reported as “high polyreactivity”. With “QVQLVESGGGIVQAGGSLRLICAASGFTFSYYAMAWYRQAPGKEREFVAAITRSGSTYYADSVKGRFTISRENAKNTVYLQMISLKPEDTSVYYCAARFLYRYDYWGQGTQVTVSS” the “polyreactivity (PSR sort gate)” value was “high polyreactivity”. In the case of “QVQLVESGGGIVQAGGSLRLICAASGFTFWDYAMGWHRQAPGKERELVAAISWSGGSTYYADSVKGRFTISRDNAKNTVYLQMNSLKPEDTAVYYCNAVHYSRYVHPGHSMYYWGQGTQVTVSS”, the “polyreactivity (PSR sort gate)” value is reported as “low polyreactivity”. In the case of “QVQLVESGGGIVQAGGSLRLICAASGITFTVYAMGWDRTAPWKARELVAASCSSGSTTYADSVKGRFTFSRDNAKNTVYLQMNSVKPQDPAVYYCAAEGYYRFSTAYFRKKYEYWGQGTQVTVSS”, the “polyreactivity (PSR sort gate)” value is reported as “low polyreactivity”. For “QVQLVESGGGIVQAGGSLRLICAASGRTFKYYAMGWYRQAPGKERELVAAIRSRTGSTYYADSVKGRFTISRDNAKNTVYLQMNSLKPVDTAVYYCAAQPGSYYGPRWYYDDDYWGQGTQVTVSS”, the “polyreactivity (PSR sort gate)” value was “high polyreactivity”. With “QVQLVESGGGIVQAGGSLRLICAASGSIFNGYALGWYRQAPGKERDLVAAISWRGGTTYYADSVKGRFSISRDTAKNTVYLQMNSLKPEDTAVYYCAARHFARMGYWGQGTQVTVSS” the “polyreactivity (PSR sort gate)” value was “high polyreactivity”. For “QVQLVESGGGIVQAGGSLRLISAASGIIIDYYAMGWYRQAPGKERELVAAITSGGSTSYADSVKGRFTISRDNAKNTVYLQMNSLKAEDTAVYYCNTEPSGYESGYWGQGTLVTVSS”, the “polyreactivity (PSR sort gate)” value was “low polyreactivity”. For “QVQLVESGGGIVQAGGSLRLRCAASGLIFAYNAMGGDRQAPGKEREFVAAINSGGDSTYYADCVKGRFTISRDNAKNTVYLQMNSLKPEDTAVYYCAAVSGNKRYYYWGHGTQVTVSS”, the “polyreactivity (PSR sort gate)” value was “low polyreactivity”. For “QVQLVESGGGIVQAGGSLRLSCAASARIFGYNAMGWYRQAPGKERELVADITGSGGSTYYADSVKGRFTISRDNAKNTVYLQMNSLKPEDTAVYYCATPYAVYHVEYGYWGQGTQVTVSS”, the “polyreactivity (PSR sort gate)” value was “low polyreactivity”. For “QVQLVESGGGIVQAGGSLRLSCAASGFIFQRYVMGWYRQEPGKERQLVAAISSGGSTNYADSVKGRFTISRDNAKNTVYLQMNSLKAEDTAVYYFAADGFYYRNWGRFRYYYWGLGTQVTVSS”, the “polyreactivity (PSR sort gate)” value was “low polyreactivity”. In the case of “QVQLVESGGGIVQAGGSLRLSCAASGFIIGYNAKGWYRQAPGKETELVAAITSRGVRTYYADCVKWRFTISRDNAKNTVYLQMNSLKPEDTAVYYCAKASRGYRSPYGSIGYYYWGQGTQVTVSS”, the “polyreactivity (PSR sort gate)” value is reported as “high polyreactivity”. With “QVQLVESGGGIVQAGGSLRLSCAASGFIISPNAMGWYRHAPGKEREFVAAIRYSGTSTSYADSVKGRFTISRDNGKNTVYLQMNSLKPEDTAVYYCAAQYRQRTGMYYWGQGSQVTVSS” the “polyreactivity (PSR sort gate)” value was “high polyreactivity”. With “QVQLVESGGGIVQAGGSLRLSCAASGFTFDIYAMGWYRQAPGTERELVATISFTGDTTSYADSVKGRFTISRDNAKNTVYLQMNSLKPEDTAVYYCAADGSYPLSVGRENLHYAEFDYWGQGTQVTVSS” the “polyreactivity (PSR sort gate)” value was “low polyreactivity”. With “QVQLVESGGGIVQAGGSLRLSCAASGFTFDYYAMGWYRQAPGKERELVAAISWRGTTTYYADSVKGRFTISRDNAKNTVYLQMNSLKPEDTAVYYCAADSLFGHYDYWGQGTQVTVSS” the “polyreactivity (PSR sort gate)” value was “low polyreactivity”. In the case of “QVQLVESGGGIVQAGGSLRLSCAASGFTFKYYARGWYRQAPGKERELVAAIRGSGAGTYYADSVKGRFTISRDNAKNTGYLQMNSLKPEDTAVYYCNKRWTYKWDDYWGQGTQVTVSS”, the “polyreactivity (PSR sort gate)” value is reported as “high polyreactivity”. With “QVQLVESGGGIVQAGGSLRLSCAASGFTFSSYAMGWYRQAPGKERELVAAISSGGGSTYYADSVKGRFTISRDNAKNTVYLQMNSLKPEDTAVYYCAASHYYSNGYWGQGTQVTVSS” the “polyreactivity (PSR sort gate)” value was “high polyreactivity”.
